B1: CAMK2D (parent)
chain: IVRLHDSISEEGFHYLVFDLVTGG

Variants of: B1
Experiment: protein stability index of a GFP-peptide fusion (GPS, HEK-293T) (PSI 1-6); higher = more stable
Conditions: c terminus: a fixed tail appended
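Also: lentivirally expressed fusions sorted by FACS into six bins by GFP to DsRed ratio, PSI derived from sequencing read proportions per bin multiplied by bin number.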

Protein stability index of substitutions, site by site:
D19: P 3.21, S 4.24, A 1.87, M 3.68, K 2.88, Q 2.4, Y 3.34, I 2.4, L 2.47, T 1.62, G 2.15, V 2.75, W 1.91
V21: Q 2.38, H 2, M 1.93, P 2.41, T 2.88, F 3.33, G 3.19, L 2.71, D 3.2, Y 3.1, A 1.11, N 4.11, K 1.57, W 4.26
G24: D 2.26, C 2.4, S 2.88, P 3.4, M 3.78, K 2.87, F 1.57, L 2.13, V 3.44, R 2.09, Q 2.89, Y 3.88, E 4.45, W 2.09
F18: K 2.17, G 2, S 2, V 4.52, T 2.1, Q 1.33, H 1.63, N 2.84, L 2.51, Y 1.43, E 2.33, R 1.79, P 2.13
G23: T 3.2, N 2.49, W 2.89, Q 2.59, E 3.03, A 3.32, L 2.92, V 2.43, R 2.53, C 4.08, K 2.19, P 3.1, Y 4.01, I 2.57, H 2.88
T22: C 3.58, M 2.02, E 2.96, K 3.31, N 4.16, Y 3.62, H 2.24, I 2.22, S 2.67
L20: D 1.67, R 2.04, I 3.09, P 1.86, N 2.25, A 2.13, T 2.27, M 3.24, S 1.45, C 3.9, E 2.05, Y 2.67, H 1.35, G 1.93, V 3.87, Q 2.52, K 2.41
